Measured values published in publication PMC5412564 (The Journal of Cell Biology, 2017).

Tests used:
[1] = molecular target: 549-SNAP-VopF (Vibrio cholera (so in the source)); test: photobleaching step counting of single molecules
[2] = molecular target: the molecule itself; test: photobleaching step counting of single molecules

549-SNAP-VopF (domain or fragment)
stoichiometry N [1]: 2

B1: 549-SNAP-VopL (domain or fragment)
chain: LSIKHGSSIPPAPPLPGAIPPAPPLNLSKGAPKSSSNSLDSVNEDHSKLMEQIRQGVKLKSATKSLSADKSSADAHSKLMEELLTGGRKLKKVATSDIPAPPPLPSASTSKSPDSRNALLSEIAGFSKDRLRKTGSLETLNSSQSKDKESFEPTTHERLLSEDLFKQSPKLSEQELDELANNLADYLFQAADIDWHQVISEKTRGLTTEEMAKSEHRYVQAFCREILKYPDCYKSADVASPESPKSGGGSVIDVALKRLQTGRERLFTTTDEKGNRELKKGDAILESAINAARMAISTEEKNTILSNNVKSATFEVFCELPCMDGFAEQNGKTAFYALRAGFYSAFKNTDTAKQDITKFMKDNLQAGFSGYSYQGLTNRVAQLEAQLAALSAKLS
modifications: SNAP-Surface 549 on the SNAP-tag (labeling efficiency ~75%)
stoichiometry N [2]: 2
